Reference: US6429291B1, “Hyaluronan receptor protein” (priority 1994, dated 2002)

Assays:
smooth muscle cells = experiment: Smooth muscle cell migration after wounding of monolayers; type: cell-based, bovine; details: peptides 2 μg/ml
Experimental: Smooth muscle cells were isolated from bovine aorta as described previously from rat aorta (Majack et al., 1984) and were maintained in Dulbecco's Modified Eagles medium (DME) supplemented with 10% fetal calf serum (FCS) and 20 mM HEPES buffer, pH 7.2 at 37° C. and 5% CO2 in air. All experiments were performed using defined medium [DME with 20 mM HEPES buffer, pH 7.2, 0.5 U/ml insulin (beef and pork zinc suspension, Novo Laboratories Ltd., Willowdale, Ontario) and 4 μg/ml transferrin (Sigma Chemical Co., St. Louis, Mo.)], and the culture medium was replaced 24 hours before filming. Wounding injury to confluent monolayers consisted of removal of half the monolayer using a cell lifter followed by the addition of fresh defined medium in the presence of either RHAMM peptide aa401-411 or the scrambled peptide of the same domain as described above.
The HA-binding region of RHAMM consists of two 10 amino acid domains located close to the carboxy terminus of the protein (Yang, 1993). A peptide mimicking Domain 1 (amino acids 401-411)—YKQKIKHVVKLK—and a scrambled peptide consisting of the same amino acids arranged in a random manner—YLKQKKVKKHIV—were synthesized. Both peptides were used at a final concentration of 2 μg/ml in locomotion assays.
Injured cell monolayers were monitored for motility using an IM 35 Zeiss inverted microscope to which a video camera (Hamamatsu CCD, Inc., Japan) was attached. The cells were maintained at 37° C. using a heated platform (TRZ 3700, Zeiss, Germany). Cell locomotion was followed by using image analysis (Image 1, Universal Imaging Corp., Westchester, Pa. This program allows quantification of nuclear displacement from a sequence of digitalized images. The motility of thirty cells in each experiment was followed for a period of 24 hours with mean velocities calculated every hour.

C3 fibroblasts [1] = experiment: Cell locomotion assay, timelapse image analysis of C3 fibroblasts; type: cell-based, murine; details: 70% confluent C3, 2 h
Experimental: For motility experiments, 10^5 cells were subcultured into 25 cm^2 tissue culture flasks (Corning), and maintained for 12 h as above. The medium was then aspirated, cells were rinsed with Hanks Balanced Salt Solution (HBSS) (Gibco) and fresh, serum-free α-MEM containing 4.0 μg/ml transferrin (Gibco) and 2.0 μg/ml insulin (Sigma) (defined medium) was added to the flasks.
Cell locomotion was recorded using a computerized timelapse analysis system (Image 1, Universal Imaging Corporation, Westchester, Pa.) that measures nuclear displacement. During the filming period, cells were maintained at 37° C. in defined-media at physiological pH.
A 10 amino acid peptide corresponding to one of the HA binding domains of RHAMM, peptide^aa423-432 (Yang et al., 1993), was synthesised and added at various concentrations (0,0.1, 1.0, 5.0, 10.0 and 50.0 ng/ml) to 70% confluent C3 fibroblasts. Cell locomotion was monitored by image analysis for 2 h from the addition of the peptide. A scrambled peptide was used as control.
RHAMM-GST fusion protein prepared and purified as described in (b) above was added at concentrations of 1 pg/ml, 1 ng/ml, 1 μg/ml and 1 mg/ml to 70% confluent C3 cultures and cell locomotion was monitored by image analysis for 2 h from protein addition as described in Example 5.
For each experiment, 30 cells were tracked every 10 min for a 1 hr period.
RHAMM-GST fusion protein, as described in (d) above, and deleted/mutated RHAMM-GST fusion protein, as described in (h) above were added at 5 ng/ml to subconfluent cultures of C3 cells and cell locomotion was monitored by image analysis for 2 h from protein addition as described in Example 5.

C3 fibroblasts [2] = experiment: Focal adhesion formation (vinculin immunofluorescence) and cell spreading of C3 fibroblasts; type: cell-based, murine; details: for cells with focal adhesion staining (vinculin plaque-positive cells): 100 ng/mL
Experimental: The ras-transformed 10T½ cells termed C3 (Egan et al., 1987) were grown on fibronectin coated glass coverslips for 24 hrs. The cells were then exposed to RHAMM I-2a (1 ng/ml to 1 mg/ml) for 2 hrs at 37° C. before fixing with 3% paraformaldehyde/phosphate buffered saline (PBS). Cells were then washed three times with 10% fetal calf serum PBs, permeabilized with 0.2% triton X-100/PBS for 3 min, and washed again. The coverslips were then incubated with anti-vinculin (Sigma, 1:75 dilution) or an identical concentration of nonspecific mouse IgG for 1 hr at 37° C. After washing, the coverslips were incubated with rhodamine labelled goat anti-mouse antibody (1:200, Sigma) for 2 hrs at room temperature. After further washings, the coverslips were mounted on glass slides and viewed on a Zeiss Axiovert 35 M fluorescent microscope.

## YLKQKKVKKHIV [scrambled peptide, same amino acids as peptide aa401-411 arranged in a random manner, reference compound]
Smooth muscle cells
  effect on rate of translocation of smooth muscle cells after wounding: no effect on the wounding response

## peptide^aa423-432: 10 amino acid peptide corresponding to one of the HA binding domains of RHAMM (KEVELEKHIA; UniProt Q00547 423-432, looked up, fragment)
C3 fibroblasts [1]
  concentration at which cell locomotion was significantly inhibited: ≥ 5 ng/mL

B1: RHAMM I-2a-GST fusion protein: GST fusion protein of the secreted RHAMM isoform I-2a (with alternatively spliced exon 2A) (protein)
chain: MRALSLELMKLRNKRETKMRSMMVKQEGMELKLQATQKDLTESKGKIVQLEGKLVSIEKEKIDEKCETEKLLEYIQEISCASDQVEKCKVDIAQLEEDLKEKDREILSLKQSLEENITFSKQIEDLTVKCQLLETERDNLVSKDRERAETLSAEMQILTERLALERQEYEKLQQKELQSQSLLQQEKELSARLQQQLCSFQEEMTSEKNVFKEELKLALAELDAVQQKEEQSERLVKQLEEERKSTAEQLTRLDNLLREKEVELEKHIAAHAQAILIAQEKYNDTAQSLRDVTAQLESVQEKYNDTAQSLRDVTAQLESEQEKYNDTAQSLRDVTAQLESEQEKYNDTAQSLRDVTAQLESVQEKYNDTAQSLRDVTAQLESYKSSTLKEIEDLKLENLTLQEKVAMAEKSVEDVQQQILTAESTNQEYARMVQDLQNRSTLKEEEIKEITSSFLEKITDLKNQLRQQDEDFRKQLEEKGKRTAEKENVMTELTMEINKWRLLYDELYEKTKPFQQQLDAFEAEKQALLNEHGATQEQLNKIRDSYAQLLGHQNLKQKIKHVVKLKDENSQLKSEVSKLRSQLVKRKQNELRLQGELDKALGIRHFDPSKAFCHASKENFTPLKEGNPNCC
C3 fibroblasts [2]; 1 ng/mL, 2 hrs
  cells being vinculin plaque positive: 75%
C3 fibroblasts [2]; 2 hrs
  cells with focal adhesion staining (vinculin plaque-positive cells): < 50%
C3 fibroblasts [2]; 2 hrs, listed as RHAMM I-2a
  cells with focal adhesion staining (vinculin plaque-positive cells): > 50%
C3 fibroblasts [2]; 1 mg/mL, 2 hrs
  vinculin plaque-positive cells: > 50%
C3 fibroblasts [2]; various concentrations for 2 hours, data not shown
  effect on cell morphology: stimulate cell spreading
